Measured values as given in publication PMC9987799.
Each block holds one molecule with its values, some of them ahead of it.

How the values were obtained:
Experiment in all cases: two-hybrid; fluorescence-based mammalian two-hybrid: bait EDC4 (or a fragment) fused to the SV40 NLS forms nuclear dots in transfected HEp-2 cells; prey scored by immunofluorescence for co-localisation in nuclear dots 24 h after transfection; three transfections, at least 30 cells each, mean +/- …
[1] = molecular target: NLS-EDC4 (full-length EDC4, amino acids 1–1437, fused to the NLS of SV40 T antigen)
[2] = molecular target: NLS-EDC4 (full-length EDC4, amino acids 1–1437, fused to the NLS of SV40 T antigen); remark: listed apart in the source
GFP-NLS-EDC4(935–1437) = molecular target: GFP-NLS-EDC4(935–1437)

B1: Myc-PATL1(398–770) (domain or fragment)
chain: KDPYANLMLQREKDWVSKIQMMQLQSTDPYLDDFYYQNYFEKLEKLSAAEEIQGDGPKKERTKLITPQVAKLEHAYKPVQFEGSLGKLTVSSVNNPRKMIDAVVTSRSEDDETKEKQVRDKRRKTLVIIEKTYSLLLDVEDYERRYLLSLEEERPALMDDRKHKICSMYDNLRGKLPGQERPSDDHFVQIMCIRKGKRMVARILPFLSTEQAADILMTTARNLPFLIKKDAQDEVLPCLLSPFSLLLYHLPSVSITSLLRQLMNLPQSAATPALSNPHLTAVLQNKFGLSLLLILLSRGEDLQSSDPATESTQNNQWTEVMFMATRELLRIPQAALAKPISIPTNLVSLFSRYVDRQKLNLLETKLQLVQGIR
percent of cells expressing both proteins with the two co-localized in nuclear dots [2]: 97%

B3: CCHCR1-Myc (natural protein)
chain: MFPPSGSTGLIPPSHFQARPLSTLPRMAPTWLSDIPLVQPPGHQDVSERRLDTQRPQVTMWERDVSSDRQEPGRRGRSWGLEGSQALSQQAEVIVRQLQELRRLEEEVRLLRETSLQQKMRLEAQAMELEALARAEKAGRAEAEGLRAALAGAEVVRKNLEEGSQRELEEVQRLHQEQLSSLTQAHEEALSSLTSKAEGLEKSLSSLETRRAGEAKELAEAQREAELLRKQLSKTQEDLEAQVTLVENLRKYVGEQVPSEVHSQTWELERQKLLETMQHLQEDRDSLHATAELLQVRVQSLTHILALQEEELTRKVQPSDSLEPEFTRKCQSLLNRWREKVFALMVQLKAQELEHSDSVKQLKGQVASLQEKVTSQSQEQAILQRSLQDKAAEVEVERMGAKGLQLELSRAQEARRRWQQQTASAEEQLRLVVNAVSSSQIWLETTMAKVEGAAAQLPSLNNRLSYAVRKVHTIRGLIARKLALAQLRQESCPLPPPVTDVSLELQQLREERNRLDAELQLSARLIQQEVGRAREQGEAERQQLSKVAQQLEQELQQTQESLASLGLQLEVARQGQQESTEEAASLRQELTQQQELYGQALQEKVAEVETRLREQLSDTERRLNEARREHAKAVVSLRQIQRRAAQEKERSQELRRLQEEARKEEGQRLARRLQELERDKNLMLATLQQEGLLSRYKQQRLLTVLPSLLDKKKSVVSSPRPPECSASAPVAAAVPTRESIKGSLSVLLDDLQDLSEAISKEEAVCQGDNLDRCSSSNPQMSS
percent of cells expressing both proteins with the two co-localized in nuclear dots (GFP-NLS-EDC4(935–1437)): 96%

Second part, the molecule after the results:

percent of cells with both proteins in the nucleus that had the two in nuclear dots [1]: 86%
Molecule: NLS-LSm14a (SV40 T antigen NLS fused to LSm14a) (from UniProt Q8ND56 1-463) (natural protein)

percent of cells expressing both proteins with both in nuclear dots [2]: 94%
B2: mCh-NLS-XRN1(1232–1706) (domain or fragment)
chain: EFCNIWQSLQGSGKMQYFQPTIQEKGAVLPQEISQVNQHHKSGFNDNSVKYQQRKHDPHRKFKEECKSPKAECWSQKMSNKQPNSGIENFLASLNISKENEVQSSHHGEPPSEEHLSPQSFAMGTRMLKEILKIDGSNTVDHKNEIKQIANEIPVSSNRRDEYGLPSQPKQNKKLASYMNKPHSANEYHNVQSMDNMCWPAPSQIPPVSTPVTELSRICSLVGMPQPDFSFLRMPQTMTVCQVKLSNGLLVHGPQCHSENEAKEKAALFALQQLGSLGMNFPLPSQVFANYPSAVPPGTIPPAFPPPTGWDHYGSNYALGAANIMPSSSHLFGSMPWGPSVPVPGKPFHHTLYSGTMPMAGGIPGGVHNQFIPLQVTKKRVANKKNFENKEAQSSQATPVQTSQPDSSNIVKVSPRESSSASLKSSPIAQPASSFQVETASQGHSISHHKSTPISSSRRKSRKLAVNFGVSKPSE
